Experimental data as given in patent US10280218B2, “Antibodies binding to BMP4, and uses thereof” (ACADEMISCH MEDISCH CENTRUM, priority 2014, dated 2019).
“Also recorded” adds a separate entry of the source.

T1: BMP2 (Homo sapiens, UniProt P12643)
T1 sequence (P12643 283-396): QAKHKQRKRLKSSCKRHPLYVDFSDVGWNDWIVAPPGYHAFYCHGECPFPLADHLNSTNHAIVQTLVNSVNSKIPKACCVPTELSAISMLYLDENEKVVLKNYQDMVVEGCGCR

T2: BMP6 (Homo sapiens, UniProt P22004)
T2 sequence (P22004 375-513): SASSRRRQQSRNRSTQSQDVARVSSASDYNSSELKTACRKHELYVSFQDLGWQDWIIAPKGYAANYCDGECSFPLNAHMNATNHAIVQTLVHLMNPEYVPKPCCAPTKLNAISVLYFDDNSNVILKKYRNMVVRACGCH

B1: hNoggin (protein)
chain: QHYLHIRPAPSDNLPLVDLIEHPDPIFDPKEKDLNETLLRSLLGGHYDPGFMATSPPEDRPGGGGGAAGGAEDLAELDQLLRQRPSGAMPSEIKGLEFSEGLAQGKKQRLSKKLRRKLQMWLWSQTFCPVLYAWNDLGSRFWPRYVKVGSCFSKRSCSVPEGMVCKPSKSVHLTVLRWRCQRRGGQRCGWIPIQYPIISECKCSC
B2: C8E7: E7 linked to C8, hetero-dimer VHH bihead (protein)
chain: EVQLVESGGGLVQAGGSLRLSCAASGRTFRINDMGWYRQAPGKSRDMVARITSGGNTNYADSVKGRFTISRDNAKNTVYLQMNSLKPEDTAVYYCNADGLRFDSTRYRPFDSWGQGTQVTVSSGGGGSGGGGSEVQLVESGGGLVQAGGSLRLSCAASGSIRGFVAMAWYRQAPGKQREWVATVTNGGTLYGDSVKGRFTGSRDNAKNTVYLQMNSLKPEDTAVYYCALRQIGASGYDYWGQGTQVTVSS

Key:
[1] = target: T1, BMP2; experiment: Surface plasmon resonance (SPR), BMPs injected over VHH-coated chip; design: ka (BMP2): unit not given here; conditions: molecule coupled to chip, —: No binding detected
Description: In a first set of experiments, controls and VHHs (either as monomers or dimers) were coupled to SPR chips and the measurement of BMP affinities was obtained by injecting the different BMPs to the plate.
Serial dilutions (2.0-10 μg/ml) of purified VHHs were spotted on an amine-specific SensEye gold-film gel-type SPRchip (Ssens), using a Continuous Flow Microspotter (Wasatch Microfluidics, Salt Lake City, Utah, United States) as described (Lokate et al., 2007). BMP binding was analyzed on an IBIS MX96 (IBIS Technologies, Enschede, The Netherlands) instrument by performing injections with dilution series (0.05-2.0 μg/ml) of recombinant BMPs on the VHH-coated chip. In each injection, BMPs were injected and incubated for 8 min, followed by 15 min thorough washing with binding buffer (PBS+0.05% Tween20+0.05% sodium azide) to measure dissociation. Epitope binning was done by injecting VHH dilutions (2.0 μg/ml) over the chip, immediately after the dissociation step. Injections with blank binding buffer were used as reference. After each concatenated injection, the chip was regenerated with 10 mM glycine-HCl, pH 2.0. Experimental data were processed with SPRintX software (IBIS Technologies) and kinetic parameters were determined using Scrubber2 software (BioLogic Software, Campbell, ACT, Australia). Binding constants were obtained by global fitting to a one-site binding model.

[2] = target: T1, BMP2; experiment: BMP activity luciferase reporter assay (BRE-luciferase, ID1 promoter) in C2C12 cells; assay type: cell-based, mouse
Description: (§1) One of the most studied BMP target genes is the Inhibitor of Differentiation 1 (ID1). This is an immediate early gene that is activated by binding of the phosphorylated SMADs to its promoter region (López-Rovira et al., 2002). Thus, we employed the BMP-responsive C2C12 cells, which are stably transfected with the BRE-luciferase vector containing the BMP-Responsive-Element (the mouse ID1 promoter) cloned into the pGL3 luciferase vector (Zilberberg 2007). […] C2C12 cells were treated with the different BMPs with or without our VHHs or human Noggin at a concentration of 5 μg/ml. Luciferase activity was measured after 16 hours incubation. Most of the transcriptional data is in concordance with the results obtained with the phosphorylation of SMAD1/5/8.
(§2) C2C12 cells were plated in 96-well plates at 5×10^3 cells/well and cells were allowed to attach overnight. 100 μl of DMEM with 0.1% BSA were added in each well. VHH antibodies and human Fc-Noggin at the indicated concentrations were added at the same time. Wells with unstimulated cells were added as controls. Cells were treated in triplicate with the BMPs at the indicated concentrations for 16 hours. Luciferase activity was measured by adding 100 μl of luciferase substrate solution from the Bright-Glo™ Luciferase Assay System (Promega Benelux, Leiden, The Netherlands). After 3 minutes of incubation, luciferase activity was measured with Synergy HT Multi-Mode Microplate Reader (Biotek, Winooski, Vt., United States). Luciferase values were normalized to background activity (activity of wells with no cells) and represented as ratio to the activity of BMP-stimulated cells.
(§3) To evaluate the extent of this increase in potency, the IC50 of the different VHHs were determined in a dose-dependent inhibition assay in C2C12 cells (FIG. 25). C2C12 cells were plated in 96-well plates at 5×10^3 cells/well and cells were allowed to attach overnight 100 μl of DMEM with 0.1% BSA were added in each well. VHH antibodies were added at the indicated concentrations at the same time as 5 ng/ml BMP4 (FIG. 25A-B, D) or 50 ng/ml of BMP2 (FIG. 25C,D). Luciferase activity was measured after 16 hours. Values are represented as ratio to the activity of BMP-stimulated cells. […] However, its effects were more striking for BMP2 rather than BMP4 inhibition. […] The IC50 values for BMP4 inhibition observed in our VHHs are considerably lower than those observed for anti-BMP4 commercially available from R&D (Katagiri et al 1994) and those described in WO_2008/030611.
(§4) C2C12 cells were cultured in 96-well plates at 5×10^3 cells/well. After overnight attachment cells were stimulated with 10 ng/ml hBMP4 (Cat No. 314-BP-020; R&D Systems), 50 ng/ml hBMP2 (Cat No. 355-BM-010; R&D Systems), 200 ng/ml hBMP5 (Cat No. 615-BMC-020; R&D Systems), 50 ng/ml hBMP6 (Cat No. 506-BP-020; R&D Systems), 200 ng/ml hBMP7 (Cat No. 354-BP-010; R&D Systems), 25 ng/ml hBMP9 (Cat No. 3209-BP-010; R&D Systems), 25 ng/ml hBMP10 (Cat No. 2926-BP-025; R&D Systems), 50 ng/ml hBMP12 (Cat No. 779-G7-010; R&D Systems) and with or without VHH antibodies: C4C4 and C8C8 at 500 ng/ml; natural antagonist: mNoggin (Cat No. 1967-NG-025; R&D Systems), hNoggin (Cat No. 6057-NG; R&D Systems) and mGremlin (cat#956-GR-050; R&D Systems) at 500 ng/ml; chemical antagonist: 0.5 μM LDN-193189 (Cat No. 11802; Cayman Chemical) and 0.2 μM DMH1 (Cat No. 57146; Selleckchem).
(§5) VHH efficacy was evaluated by stimulating cells with 10 ng/ml of hBMP4 and 50 ng/ml of hBMP2, with and without increase concentrations (from 0.1-10 μg/ml) of VHH and anti-BMP4 antibodies: clone 66119, clone 3H2, clone M912262, clone PA354-16.1.1, Clone EPR6211, and anti-BMP4 (ab39973). […] Unstimulated cells were used as controls and wells with no cells used to normalize the background activity. […]

[3] = system: human BMP4; experiment: as above; assay type: cell-based, mouse
Description: as §1, §2, §3, §4, §5

[4] = target: T2, BMP6; experiment: as above; assay type: cell-based, mouse
Description: as §1, §2
C2C12 cells were cultured in 96-well plates at 5×10^3 cells/well. […]

Row | Molecule | kd (BMP2) [1] | inhibition of BMP-2 signals, comparison of inhibitors ([2]; 50 ng/ml hBMP2, 16 h, VHH, Noggin, Gremlin 500 ng/ml, LDN 0.5 μM, DMH1 0.2 μM) | IC50 ([2]; 50 ng/ml hBMP2, 16 hours, read-out: IC50, neutralization of BMP2) | inhibition of BMP4-derived signals, comparison of inhibitors ([3]; 10 ng/ml hBMP4, 16 h, VHH, Noggin, Gremlin 500 ng/ml, LDN 0.5 μM, DMH1 0.2 μM) | IC50 ([3]; 10 ng/ml hBMP4, 16 hours, read-out: IC50, neutralization of BMP4) | inhibition of BMP-6 signals, comparison of inhibitors ([4]; 50 ng/ml hBMP6, 16 h, 500 ng/ml) | ka (BMP2) [1] | inhibition of BMP2-mediated transcriptional activation by dimers ([2]; BMP2 50 ng/ml, 16 hours, increasing concentrations up to 5 μg/ml) | inhibition of BMP4-mediated transcriptional activation by dimers ([3]; BMP4 5 ng/ml, 16 hours, increasing concentrations) | inhibition of BMP6-mediated transcriptional activation by dimers ([4]; BMP6 50 ng/ml, 16 hours, increasing concentrations)
1 | B1 | 16.2 10^−5 sec^−1 | greatly inhibit | ~1.6 nM | greatly inhibit | ~0.54 nM | inhibited | – | – | – | –
2 | B2 | 10.7 10^−5 sec^−1 | – | – | – | – | – | 19.4 | inhibit; also recorded: similar | inhibit; also recorded: similar | unable to impair
